Laboratory results taken from US20070282095.

What was measured:
[1] = molecular target: blood coagulation factor 13 (Fibrogammin P) (UniProt P00488)
fibrinogen = fibrinogen (UniProt P02671)
Sequence of fibrinogen (P02671 20-629, chain 1 of 3): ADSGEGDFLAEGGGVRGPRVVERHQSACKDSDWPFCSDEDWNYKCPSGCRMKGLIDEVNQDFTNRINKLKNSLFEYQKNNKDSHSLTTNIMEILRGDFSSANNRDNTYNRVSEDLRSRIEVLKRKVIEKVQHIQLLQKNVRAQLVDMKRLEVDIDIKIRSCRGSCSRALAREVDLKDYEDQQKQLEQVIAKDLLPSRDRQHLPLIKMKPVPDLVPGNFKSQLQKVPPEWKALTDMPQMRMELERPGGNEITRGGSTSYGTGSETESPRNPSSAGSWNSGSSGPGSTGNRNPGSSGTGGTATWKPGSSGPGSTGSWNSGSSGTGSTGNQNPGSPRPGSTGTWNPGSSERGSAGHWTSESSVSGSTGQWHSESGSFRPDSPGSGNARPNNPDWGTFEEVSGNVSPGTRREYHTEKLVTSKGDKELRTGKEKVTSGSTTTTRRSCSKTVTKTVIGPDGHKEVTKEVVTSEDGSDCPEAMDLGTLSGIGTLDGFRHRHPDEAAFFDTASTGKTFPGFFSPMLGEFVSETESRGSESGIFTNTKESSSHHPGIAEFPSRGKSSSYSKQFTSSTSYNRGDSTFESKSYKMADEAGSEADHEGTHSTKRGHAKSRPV
Sequence of fibrinogen (chain, as listed by the source, chain 2 of 3): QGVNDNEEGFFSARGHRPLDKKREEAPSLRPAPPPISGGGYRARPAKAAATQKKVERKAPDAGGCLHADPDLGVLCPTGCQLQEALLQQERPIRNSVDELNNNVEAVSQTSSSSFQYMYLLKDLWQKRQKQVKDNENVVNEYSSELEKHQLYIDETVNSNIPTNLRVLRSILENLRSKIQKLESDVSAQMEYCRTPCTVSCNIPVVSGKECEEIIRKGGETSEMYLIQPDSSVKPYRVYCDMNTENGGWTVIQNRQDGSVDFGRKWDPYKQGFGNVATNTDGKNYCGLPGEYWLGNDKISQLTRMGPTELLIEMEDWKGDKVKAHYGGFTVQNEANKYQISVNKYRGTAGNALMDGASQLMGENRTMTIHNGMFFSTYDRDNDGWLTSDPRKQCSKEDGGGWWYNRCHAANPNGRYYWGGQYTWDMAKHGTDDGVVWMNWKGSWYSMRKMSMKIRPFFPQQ
Sequence of fibrinogen (chain, as listed by the source, chain 3 of 3): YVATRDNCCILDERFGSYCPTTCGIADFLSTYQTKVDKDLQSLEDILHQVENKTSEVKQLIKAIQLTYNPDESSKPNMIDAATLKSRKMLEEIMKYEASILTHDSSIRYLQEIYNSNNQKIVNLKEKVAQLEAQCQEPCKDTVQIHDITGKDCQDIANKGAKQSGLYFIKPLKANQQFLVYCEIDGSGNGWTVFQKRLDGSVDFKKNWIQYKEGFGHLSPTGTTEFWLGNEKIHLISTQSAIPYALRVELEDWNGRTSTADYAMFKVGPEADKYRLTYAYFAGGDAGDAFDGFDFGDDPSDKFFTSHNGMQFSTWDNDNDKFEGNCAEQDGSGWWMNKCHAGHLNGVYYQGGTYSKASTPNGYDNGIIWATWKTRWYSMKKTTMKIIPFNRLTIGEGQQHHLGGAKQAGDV

Sequence of blood coagulation factor 13 (Fibrogammin P) (P00488 2-732, chain 1 of 2): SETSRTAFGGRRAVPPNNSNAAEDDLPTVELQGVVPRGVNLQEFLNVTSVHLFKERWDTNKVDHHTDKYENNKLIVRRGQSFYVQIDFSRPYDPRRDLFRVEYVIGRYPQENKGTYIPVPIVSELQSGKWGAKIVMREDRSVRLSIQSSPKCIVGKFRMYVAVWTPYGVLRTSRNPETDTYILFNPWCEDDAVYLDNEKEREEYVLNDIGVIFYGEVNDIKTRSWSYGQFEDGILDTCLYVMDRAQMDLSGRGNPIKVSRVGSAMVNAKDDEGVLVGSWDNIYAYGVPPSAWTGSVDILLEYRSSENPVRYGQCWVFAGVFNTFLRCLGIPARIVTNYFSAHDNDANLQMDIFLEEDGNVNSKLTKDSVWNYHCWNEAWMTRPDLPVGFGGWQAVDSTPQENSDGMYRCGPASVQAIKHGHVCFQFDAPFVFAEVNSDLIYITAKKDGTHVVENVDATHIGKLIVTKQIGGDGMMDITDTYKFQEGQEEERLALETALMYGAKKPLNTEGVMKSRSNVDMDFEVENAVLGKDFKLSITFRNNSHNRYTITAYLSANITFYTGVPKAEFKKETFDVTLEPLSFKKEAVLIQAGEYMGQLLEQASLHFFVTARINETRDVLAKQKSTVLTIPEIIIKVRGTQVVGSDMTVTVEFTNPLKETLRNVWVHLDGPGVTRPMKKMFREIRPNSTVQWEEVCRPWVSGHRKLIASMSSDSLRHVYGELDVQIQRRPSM
Sequence of blood coagulation factor 13 (Fibrogammin P) (chain, as listed by the source, chain 2 of 2): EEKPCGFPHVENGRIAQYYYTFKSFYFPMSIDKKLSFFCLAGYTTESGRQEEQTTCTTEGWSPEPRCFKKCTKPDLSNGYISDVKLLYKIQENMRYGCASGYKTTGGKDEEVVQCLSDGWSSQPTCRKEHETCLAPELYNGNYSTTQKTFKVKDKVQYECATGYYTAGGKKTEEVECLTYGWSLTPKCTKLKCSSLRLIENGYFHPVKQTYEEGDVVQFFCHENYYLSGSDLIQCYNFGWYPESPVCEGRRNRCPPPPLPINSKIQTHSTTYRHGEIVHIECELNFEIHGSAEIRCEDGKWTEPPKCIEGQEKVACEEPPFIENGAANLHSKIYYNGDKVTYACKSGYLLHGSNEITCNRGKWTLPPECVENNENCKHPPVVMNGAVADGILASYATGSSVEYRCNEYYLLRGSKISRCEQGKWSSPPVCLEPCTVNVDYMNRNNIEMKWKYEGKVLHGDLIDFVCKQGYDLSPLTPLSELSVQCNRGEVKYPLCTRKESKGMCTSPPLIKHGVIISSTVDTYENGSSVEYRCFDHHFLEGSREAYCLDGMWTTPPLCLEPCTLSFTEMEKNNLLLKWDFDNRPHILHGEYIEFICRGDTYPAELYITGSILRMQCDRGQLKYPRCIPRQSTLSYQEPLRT

Q: “203A205A99N thrombin (glycine 203 to alanine, serine 205 to alanine, aspartic acid 99 to asparagine in B chain)” was tested. Which “cleavage of FXIII A chain, SDS-PAGE (method B), 37°C 3 hours” value (shortened to “cleavage of FXIII A chain … 37°C 3 hours”) [1] did it give?
A: no band of an A chain-activated product of FXIII was observed

Q: How did the “cleavage of FXIII A chain, SDS-PAGE (method B), 37°C” value [1] turn out when “203A205A thrombin (glycine 203 to alanine, serine 205 to alanine in B chain)” was run?
A: No band of A chain-activated product of FXIII was observed even in lane 6 which was obtained after 3 hour-incubation

Q: For “203A205G thrombin (glycine at position 203 in B chain substituted by alanine, serine at position 205 substituted by glycine)”, which “cleavage of FXIII A chain, SDS-PAGE (method B), 37°C” value [1] is on record?
A: No band of an A chain-activated product of FXIII was observed in the sample (lane 6) which was obtained after 3-hour incubation

Q: And the “clot formation from Fbgn (method C), 37°C 3 hours” value (fibrinogen)?
A: no clot formation was observed

Q: With “203A thrombin (glycine at position 203 in B chain substituted by alanine)” as the substance, how does the “cleavage of FXIII A chain, SDS-PAGE (method B), 37°C” value [1] read?
A: The A chain of FXIII was observed to provide a cleaved product 30 minutes later, and more than half of the A chain was cleaved after three hours

Q: What about the “clot formation from Fbgn (method C), 37°C 3 hours” value (fibrinogen) of the same substance?
A: a clot was formed after three hours

Q: With “205A43S thrombin (serine 205 to alanine, histidine 43 to serine in B chain)” as the substance, how does the “cleavage of FXIII A chain … 37°C 3 hours” value [1] read?
A: no band of A chain-activated product of FXIII was observed

Q: With “205A99N thrombin (serine 205 to alanine, aspartic acid 99 to asparagine in B chain)” as the substance, how does the “cleavage of FXIII A chain … 37°C 3 hours” value [1] read?
A: no band of an A chain-activated product of FXIII was observed

Q: With “205A thrombin (serine at position 205 in B chain substituted by alanine)” as the substance, how does the “cleavage of FXIII A chain, SDS-PAGE (method B), 37°C” value [1] read?
A: Even 3 hours later, no A chain of activated FXIII was observed as shown in lane 8

Q: Which “cleavage of FXIII A chain … 37°C 3 hours” value [1] does the source give for “205G43A thrombin (serine 205 to glycine, histidine 43 to alanine in B chain)” here?
A: no band of an A chain-activated product of FXIII was observed

Q: For “205T thrombin (serine at position 205 in B chain substituted by threonine)”, which “cleavage of FXIII A chain … 37°C 3 hours” value [1] is on record?
A: A chains of almost all FXIII were activated in a similar manner as that of the wild-type thrombin, and bands of cleaved FXIII were observed
